Assay results as given in patent US20120276611A1 (GRIFOLS THERAPEUTICS, published 2012).

B1: (TAL6003)-plasmin (enzyme)
chain: MRDVVLFEKKVYLSECKTGNGKNYRGTMSKTKNGITCQKWSSTSPHRPRFSPATHPSEGLEENYCRNPDNDPQGPWCYTTDPEKRYDYCDVPQCAAPSFDCGKPQVEPKKCPGRVVGGCVAHPHSWPWQVSLRTRFGMHFCGGTLISPEWVLTAAHCLEKSPRPSSYKVILGAHQEVNLEPHVQEIEVSRLFLEPTRKDIALLKLSSPAVITDKVIPACLPSPNYVVADRTECFITGWGETQGTFGAGLLKEAQLPVIENKVCNRYEFLNGRVQSTELCAGHLAGGTDSCQGDSGGPLVCFEKDKYILQGVTSWGLGCARPNKPGVYVRVSRFVTWIEGVMRNN
notes: also called recombinant (TAL6003)-plasmin
B2: mini-plasmin (enzyme)
chain: VAPPPVVLLPDVETPSEEDCMFGNGKGYRGKRATTVTGTPCQDWAAQEPHRHSIFTPETNPRAGLEKNYCRNPDGDVGGPWCYTTNPRKLYDYCDVPQCAAPSFDCGKPQVEPKKCPGRVVGGCVAHPHSWPWQVSLRTRFGMHFCGGTLISPEWVLTAAHCLEKSPRPSSYKVILGAHQEVNLEPHVQEIEVSRLFLEPTRKDIALLKLSSPAVITDKVIPACLPSPNYVVADRTECFITGWGETQGTFGAGLLKEAQLPVIENKVCNRYEFLNGRVQSTELCAGHLAGGTDSCQGDSGGPLVCFEKDKYILQGVTSWGLGCARPNKPGVYVRVSRFVTWIEGVMRNN
notes: also called mini-plasmin (K5-SP)
B3: micro-plasmin (enzyme, UniProt P00747 562-810, looked up)
chain: APSFDCGKPQVEPKKCPGRVVGGCVAHPHSWPWQVSLRTRFGMHFCGGTLISPEWVLTAAHCLEKSPRPSSYKVILGAHQEVNLEPHVQEIEVSRLFLEPTRKDIALLKLSSPAVITDKVIPACLPSPNYVVADRTECFITGWGETQGTFGAGLLKEAQLPVIENKVCNRYEFLNGRVQSTELCAGHLAGGTDSCQGDSGGPLVCFEKDKYILQGVTSWGLGCARPNKPGVYVRVSRFVTWIEGVMRNN
notes: domain: serine protease domain; also called micro-plasmin (lacking all five kringles)

Legend:
α2-antiplasmin [1] = molecular target: T1, α2-antiplasmin (UniProt P08697 40-491, limits assumed); assay: enzyme mixed with α2-antiplasmin, residual S-2251 activity at time points (Wiman and Collen); 22° C., PBS pH 7.4
T1 construct: also called α2-AP
T1 sequence (looked up): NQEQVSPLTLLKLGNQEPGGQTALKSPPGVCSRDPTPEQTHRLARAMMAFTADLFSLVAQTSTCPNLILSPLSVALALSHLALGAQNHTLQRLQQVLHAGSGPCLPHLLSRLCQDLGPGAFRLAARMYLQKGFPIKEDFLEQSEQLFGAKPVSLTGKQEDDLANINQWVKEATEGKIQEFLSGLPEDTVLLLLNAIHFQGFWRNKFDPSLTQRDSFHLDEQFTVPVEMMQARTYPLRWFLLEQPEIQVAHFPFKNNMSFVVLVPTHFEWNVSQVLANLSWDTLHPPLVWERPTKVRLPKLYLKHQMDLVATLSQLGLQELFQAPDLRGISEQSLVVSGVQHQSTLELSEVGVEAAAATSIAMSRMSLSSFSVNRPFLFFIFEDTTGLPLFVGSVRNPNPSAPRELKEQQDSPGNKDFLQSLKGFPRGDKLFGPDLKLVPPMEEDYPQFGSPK
Protocol: TABLE 3 Inhibition rates for various plasmin species and inhibitors were determined at 22° C. in PBS buffer, pH 7.4.

α2-antiplasmin [2] = molecular target: T1, α2-antiplasmin; assay: inhibition rates by α2-antiplasmin compared (residual S-2251 activity)

Row | Binder | inhibition rate (second-order rate constant) (α2-antiplasmin [1]) [M⁻¹ s⁻¹] | fold faster inhibition than micro-plasmin or mini-plasmin (α2-antiplasmin [2]) [fold]
1 | B1 | 1.8e+07 | 40
2 | B2 | 240000 | 
3 | B3 | 180000 | 
